According to IntAct's records for PubMed 16377563:

Tests used:
h2ax_human H2AX [1] = target: h2ax_human H2AX (UniProt P16104)
h2ax_human H2AX [2] = target: h2ax_human H2AX (UniProt P16104); remark: listed apart in the source
h2ax_human H2AX [3] = target: h2ax_human H2AX (UniProt P16104); remark: listed apart in the source

| Substance | effect of a mutation on the interaction (h2ax_human H2AX [1]) | effect of a mutation on the interaction (h2ax_human H2AX [2]) | effect of a mutation on the interaction (h2ax_human H2AX [3]) |
| --- | --- | --- | --- |
| Mediator of DNA damage checkpoint protein 1 (Homo sapiens), Q14676 K1936M | decreasing interaction | disrupting interaction | – |
| Mediator of DNA damage checkpoint protein 1 (Homo sapiens), Q14676 R1933Q | – | – | disrupting interaction |
| Mediator of DNA damage checkpoint protein 1 (Homo sapiens), Q14676 T1898V | – | – | decreasing interaction |
